The results in this text go back to patent US20110300138A1 (published 2011).

Experiment [1] has as its target TSHR (thyroid stimulating hormone receptor), full length human (human) (UniProt P16473). As to the kind of experiment: negative control; competitor ^125I-K1-70 IgG, TSHR coated tubes; 100 µg/mL in HBD.
Experiment [2] deals with thyroid stimulating hormone receptor (TSHR), full length human TSHR (human) (UniProt P16473). As to the kind of experiment: TSH-biotin competition ELISA, TSHR coated wells; negative control, 10 µg/mL in assay buffer. For orientation: ELISA stands for enzyme-linked immunosorbent assay.
The target is the same in experiment [3]. Kind of experiment: TSH-biotin competition ELISA, TSHR coated wells; negative control, 0.01 µg/mL in assay buffer.
In experiment [4] the target is TSH receptor (TSHR) coated on tubes (human) (UniProt P16473). Kind of experiment: inhibition of 125I-K1-70 IgG binding to TSHR coated tubes; negative control 1 µg/mL in assay buffer.
Experiment [5] concerns the target human TSH receptor (full length) coated on ELISA plate wells (human) (UniProt P16473). Kind of experiment: TSH-biotin binding inhibition ELISA, TSHR coated wells; 10 µg/mL in assay buffer; negative control MAb.
Experiment [6] deals with TSH receptor (TSHR), full length human, coated on tubes (human) (UniProt P16473). As to the kind of experiment: inhibition of 125I-TSH binding to TSHR coated tubes; 0.01 µg/mL, diluted in HBD serum pool; mean of duplicates.
The target of experiment [7] is TSHR (thyroid stimulating hormone receptor), full length human (human) (UniProt P16473). As to the kind of experiment: competitor ^125I-K1-70 IgG, TSHR coated tubes; 0.01 µg/mL in HBD.
The target is the same in experiment [8]. As to the kind of experiment: competitor ^125I-K1-70 IgG, TSHR coated tubes; 100 µg/mL in assay buffer.
Experiment [9] addresses TSH receptor (TSHR), full length human, coated on tubes (human) (UniProt P16473). As to the kind of experiment: inhibition of 125I-K1-18 IgG binding to TSHR coated tubes; competitor 125I-K1-18 IgG; sample at 10 µg/mL in HBD serum.
Experiment [10] addresses TSHR with Arg109 mutated to Ala, expressed in CHO cells (human) (UniProt P16473). Kind of experiment: cell-based or functional assay.
Experiment [11] has as its target wild type TSHR (human TSH receptor) expressed in CHO cells (human) (UniProt P16473). As to the kind of experiment: cell-based or functional assay.
The target of experiment [12] is TSHR with Lys129 mutated to Ala, expressed in CHO cells (human) (UniProt P16473). As to the kind of experiment: cell-based or functional assay.
The target in experiment [13] is wild type TSHR (human TSH receptor) expressed in CHO cells (human) (UniProt P16473). Kind of experiment: cell-based or functional assay. The source holds these as a separate data set.
Experiment [14] addresses human thyroid stimulating hormone receptor (TSHR), full length (human) (UniProt P16473). Kind of experiment: 125I-K1-18 Fab competition, TSHR coated tubes; 0.1 µg/mL in assay buffer.
For experiment [15], the target named is human TSH receptor (full length) coated on ELISA plate wells (human) (UniProt P16473). Kind of experiment: TSH-biotin binding inhibition ELISA, TSHR coated wells; 0.1 µg/mL in assay buffer.
Experiment [16] deals with thyroid stimulating hormone receptor (TSHR), full length, coated on tubes (human) (UniProt P16473). As to the kind of experiment: inhibition of 125I-TSH binding, TSHR coated tubes; antibody 1 µg/mL in assay buffer.
Experiment [17] has as its target human TSH receptor (full length) coated on ELISA plate wells (human) (UniProt P16473). Kind of experiment: TSH-biotin binding inhibition ELISA, TSHR coated wells; 100 µg/mL in HBD serum pool.
For experiment [18] the target is unchanged. Kind of experiment: TSH-biotin binding inhibition ELISA, TSHR coated wells; 0.01 µg/mL in HBD serum pool.
Experiment [19] has as its target thyroid stimulating hormone receptor (TSHR), full length, coated on tubes (human) (UniProt P16473). As to the kind of experiment: inhibition of 125I-TSH binding, TSHR coated tubes; antibody 1 µg/mL in HBD serum pool.
For experiment [20], the target named is TSH receptor (TSHR), full length human, coated on tubes (human) (UniProt P16473). Kind of experiment: inhibition of 125I-TSH binding to TSHR coated tubes; 0.1 µg/mL, diluted in HBD serum pool.
The target in experiment [21] is thyroid stimulating hormone receptor (full length human TSHR) (human) (UniProt P16473). As to the kind of experiment: ELISA, inhibition of TSH-biotin binding to TSHR coated wells; 10 µg/mL, diluted in HBD serum pool.
The target is the same in experiment [22]. As to the kind of experiment: ELISA: inhibition of M22 Fab-peroxidase (competitor) binding to TSHR coated wells; 0.1 µg/mL, diluted in assay buffer.
Experiment [23] has the same target. Kind of experiment: ELISA: inhibition of M22 Fab-peroxidase (competitor) binding to TSHR coated wells; 100 µg/mL, diluted in assay buffer.
Experiment [24] has the same target. Kind of experiment: ELISA: inhibition of M22 Fab-peroxidase (competitor) binding to TSHR coated wells; 10 µg/mL, diluted in HBD serum pool.

Like-named read-outs stand apart in the source and are kept apart here.

Regarding 5B3 IgG (antibody), the Inhibition of binding (%) in experiment [1] is -0.9%; in experiment [2] it was -8.4%; in [3], -5.9%; in experiment [4], -2.6%; in [6] it was 2.6%. Further, the % inhibition of TSH-biotin binding in experiment [5] was 0.9%.

Turning to 9D33 IgG (antibody), the Inhibition of binding (%) in experiment [7] was 0.6%; in experiment [8], 61.4%; in [9], 68.1%.

In experiment [10], TSH (ligand) showed a Cyclic AMP produced, mutated TSHR, TSH 0.01 ng/mL of 3.15 pmol/mL; a Cyclic AMP produced, mutated TSHR, TSH 0.03 ng/mL of 4.92 pmol/mL; a Cyclic AMP produced, mutated TSHR, TSH 0.1 ng/mL of 8.39 pmol/mL; a Cyclic AMP produced, mutated TSHR, TSH 0.3 ng/mL of 39.2 pmol/mL. Moreover, in [10], the Cyclic AMP produced, mutated TSHR, TSH 1 ng/mL turned out to be 43.8 pmol/mL; the Cyclic AMP produced, mutated TSHR, TSH 3 ng/mL was 55.2 pmol/mL; the Mutated/Wild type (%) of cyclic AMP produced, TSH 0.01 ng/mL came out at 115%; the Mutated/Wild type (%) of cyclic AMP produced, TSH 0.03 ng/mL came out at 116%. In experiment [10], this molecule displayed a Mutated/Wild type (%) of cyclic AMP produced, TSH 0.1 ng/mL of 89%; a Mutated/Wild type (%) of cyclic AMP produced, TSH 0.3 ng/mL of 99%; a Mutated/Wild type (%) of cyclic AMP produced, TSH 1 ng/mL of 72%; a Mutated/wild type (%) of cyclic AMP produced; TSH 3 ng/mL of 78%. In experiment [11], the Cyclic AMP produced, wild type TSHR, TSH 0.01 ng/mL stood at 2.74 pmol/mL; the Cyclic AMP produced, wild type TSHR, TSH 0.03 ng/mL came to 4.24 pmol/mL; the Cyclic AMP produced, wild type TSHR, TSH 0.1 ng/mL stood at 9.39 pmol/mL; the Cyclic AMP produced, wild type TSHR, TSH 0.3 ng/mL was 39.6 pmol/mL. Moreover, in experiment [11], the Cyclic AMP produced, wild type TSHR, TSH 1 ng/mL worked out at 61.2 pmol/mL and the Cyclic AMP produced, wild type TSHR, TSH 3 ng/mL is 70.6 pmol/mL. In [12], this molecule yielded a Cyclic AMP produced, mutated TSHR, TSH 0.01 ng/mL of 2.69 pmol/mL; a Cyclic AMP produced, mutated TSHR, TSH 0.03 ng/mL of 5.34 pmol/mL; a Cyclic AMP produced, mutated TSHR, TSH 0.1 ng/mL of 12.7 pmol/mL; a Cyclic AMP produced, mutated TSHR, TSH 0.3 ng/mL of 29 pmol/mL. In experiment [12], this molecule displayed a Cyclic AMP produced, mutated TSHR, TSH 1 ng/mL of 40.8 pmol/mL; a Cyclic AMP produced, mutated TSHR, TSH 3 ng/mL of 48.5 pmol/mL; a Mutated/Wild type (%) of cyclic AMP produced, TSH 0.01 ng/mL of 134%; a Mutated/Wild type (%) of cyclic AMP produced, TSH 0.03 ng/mL of 161%. For the same molecule, in experiment [12], the Mutated/Wild type (%) of cyclic AMP produced, TSH 0.1 ng/mL was 131%; the Mutated/Wild type (%) of cyclic AMP produced, TSH 0.3 ng/mL was 111%; the Mutated/Wild type (%) of cyclic AMP produced, TSH 1 ng/mL came out at 88%; the Mutated/wild type (%) of cyclic AMP produced; TSH 3 ng/mL worked out at 101%. In [13], this molecule registered a Cyclic AMP produced, wild type TSHR, TSH 0.01 ng/mL of 2.01 pmol/mL; a Cyclic AMP produced, wild type TSHR, TSH 0.03 ng/mL of 3.32 pmol/mL; a Cyclic AMP produced, wild type TSHR, TSH 0.1 ng/mL of 9.69 pmol/mL; a Cyclic AMP produced, wild type TSHR, TSH 0.3 ng/mL of 26.1 pmol/mL. Moreover, in [13], the Cyclic AMP produced, wild type TSHR, TSH 1 ng/mL was found to be 46.3 pmol/mL and the Cyclic AMP produced, wild type TSHR, TSH 3 ng/mL came out at 48.1 pmol/mL.

B1: 5C9 IgG (antibody, from another filing, V domains shown)
VH: EVQLVESGGGLIQPGGSLRLSCAASGFTVSSNYMSWVRQAPGKGLEWVSVTYSGGSTSYADSVKGRFTISRDNSKNTLYLQMNSLRAEDTAVYYCARGGRYCSSISCYARSGCDYWGQGTLVTVSS
VL: AIQMTQSPSSLSASVGDRVTITCRASQSISNYLNWYQQKPGKAPKLLIYAASSLQSGVPSRFSGSGSGTDFTLTISSLQPEDFATYYCQQSYSSPSTTFGQGTKLEIK
In the case of B1, the Inhibition of binding (%) stood at 27.7% in experiment [14]; 23.5% in experiment [16]; 19.7% in [19]; 7% in experiment [20]; 37.4% in [21]; 7.1% in experiment [22]. Further, the Inhibition of binding (%) in experiment [23] turned out to be 24.6%; in experiment [24], 13%. The % inhibition of TSH-biotin binding in [15] amounted to 34.9%; in [17], 48.6%; in experiment [18] it was 7.5%.
